Our source for the binding result and Kd values is patent US20240115603A1 (Zymeworks, published 2024).

The target of assay [1] is T1, G-CSFR(CRH)E site II design 8 with N-terminal His tag (human).
T1 construct: also called design #8 G-CSFR(CRH)E
T1 chain: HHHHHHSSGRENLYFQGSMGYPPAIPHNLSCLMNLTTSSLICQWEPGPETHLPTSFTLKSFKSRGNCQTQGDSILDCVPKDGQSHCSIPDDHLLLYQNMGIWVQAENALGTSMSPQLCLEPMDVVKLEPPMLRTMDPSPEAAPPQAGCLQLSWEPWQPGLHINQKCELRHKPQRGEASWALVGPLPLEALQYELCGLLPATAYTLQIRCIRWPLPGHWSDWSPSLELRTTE
Kind of assay: co-expression in Tni insect cells, pulldown via Twin Strep tag on G-CSF, SDS-PAGE.

Assay [2] deals with T2, G-CSFR(CRH)E site II design 9 with N-terminal His tag (human).
T2 construct: also called design #9 G-CSFR(CRH)E
T2 chain: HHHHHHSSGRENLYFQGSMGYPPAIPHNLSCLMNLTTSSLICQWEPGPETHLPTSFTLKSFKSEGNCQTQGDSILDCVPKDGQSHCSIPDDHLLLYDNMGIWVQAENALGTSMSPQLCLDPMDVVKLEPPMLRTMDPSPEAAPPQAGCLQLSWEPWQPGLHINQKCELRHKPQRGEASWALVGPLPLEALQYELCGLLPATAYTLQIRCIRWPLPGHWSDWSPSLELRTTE
The assay is described as above.

The target of assay [3] is T3, G-CSFR(CRH)E site II design 15 with N-terminal His tag (human).
T3 construct: also called design #15 G-CSFR(CRH)E
T3 chain: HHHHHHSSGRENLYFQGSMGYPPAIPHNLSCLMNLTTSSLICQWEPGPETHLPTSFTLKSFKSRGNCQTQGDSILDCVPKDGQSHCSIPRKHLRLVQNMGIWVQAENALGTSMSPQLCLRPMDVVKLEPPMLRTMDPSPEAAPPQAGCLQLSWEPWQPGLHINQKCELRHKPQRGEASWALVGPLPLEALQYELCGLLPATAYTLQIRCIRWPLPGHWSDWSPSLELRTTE
The assay is described as above.

In assay [4] the target is T4, G-CSFR(CRH)E site II design 30 with N-terminal His tag (human, UniProt Q99062 120-331).
T4 construct: also called design #30 G-CSFR(CRH)E
T4 chain: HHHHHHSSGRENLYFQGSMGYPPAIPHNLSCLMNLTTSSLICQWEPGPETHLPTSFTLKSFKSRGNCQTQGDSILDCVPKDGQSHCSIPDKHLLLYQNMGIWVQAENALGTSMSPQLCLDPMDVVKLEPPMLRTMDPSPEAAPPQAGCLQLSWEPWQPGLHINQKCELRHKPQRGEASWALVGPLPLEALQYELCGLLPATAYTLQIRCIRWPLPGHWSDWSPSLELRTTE
The description is as above.

For assay [5], the target named is T5, G-CSFR(CRH)E site II design 34 with N-terminal His tag (human, UniProt Q99062 120-331).
T5 construct: also called design #34 G-CSFR(CRH)E
T5 chain: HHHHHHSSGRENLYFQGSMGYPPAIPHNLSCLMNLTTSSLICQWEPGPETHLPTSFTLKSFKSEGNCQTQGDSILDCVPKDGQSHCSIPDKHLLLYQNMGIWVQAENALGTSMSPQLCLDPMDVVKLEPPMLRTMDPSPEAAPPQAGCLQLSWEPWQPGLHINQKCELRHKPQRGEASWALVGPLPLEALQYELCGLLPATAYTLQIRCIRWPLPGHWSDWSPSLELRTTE
The assay is described as above.

For assay [6], the target named is T6, G-CSFR(CRH)E site II design 35 with N-terminal His tag (human).
T6 construct: also called design #35 G-CSFR(CRH)E
T6 chain: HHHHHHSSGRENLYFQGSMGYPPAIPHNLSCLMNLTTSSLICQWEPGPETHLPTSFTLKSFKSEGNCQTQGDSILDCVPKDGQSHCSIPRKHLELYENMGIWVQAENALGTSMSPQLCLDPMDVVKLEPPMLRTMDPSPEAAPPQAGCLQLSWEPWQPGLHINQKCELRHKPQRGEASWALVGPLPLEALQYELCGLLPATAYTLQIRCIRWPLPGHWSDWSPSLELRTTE
Described as above.

The target in assay [7] is T7, G-CSFR(Ig-CRH)E combination design 401 with N-terminal His tag (human, UniProt Q99062 25-331).
T7 construct: also called design 401 engineered receptor
T7 chain: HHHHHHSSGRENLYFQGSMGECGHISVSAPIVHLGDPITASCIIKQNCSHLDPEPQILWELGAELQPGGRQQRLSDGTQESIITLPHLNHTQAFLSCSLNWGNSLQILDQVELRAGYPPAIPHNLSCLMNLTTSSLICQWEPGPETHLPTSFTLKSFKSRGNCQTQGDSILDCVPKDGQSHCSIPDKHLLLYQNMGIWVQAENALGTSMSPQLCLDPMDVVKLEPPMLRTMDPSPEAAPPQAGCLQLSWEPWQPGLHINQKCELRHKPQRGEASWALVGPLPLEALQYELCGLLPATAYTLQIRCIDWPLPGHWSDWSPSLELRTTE
Described as above.

The target of assay [8] is T8, G-CSFR(Ig-CRH)E combination design 402 with N-terminal His tag (human, UniProt Q99062 25-331).
T8 construct: also called design 402 engineered receptor
T8 chain: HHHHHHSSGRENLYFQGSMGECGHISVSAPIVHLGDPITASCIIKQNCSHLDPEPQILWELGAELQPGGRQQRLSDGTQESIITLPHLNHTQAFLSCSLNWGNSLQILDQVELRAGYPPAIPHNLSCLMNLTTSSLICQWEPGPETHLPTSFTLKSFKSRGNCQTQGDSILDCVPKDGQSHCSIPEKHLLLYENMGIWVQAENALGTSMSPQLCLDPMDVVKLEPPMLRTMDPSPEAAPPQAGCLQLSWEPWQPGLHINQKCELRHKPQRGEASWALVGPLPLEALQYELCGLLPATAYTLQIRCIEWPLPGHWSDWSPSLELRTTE
The assay is described as above.

Assay [9] deals with T9, WT G-CSF, purified, tag cleaved (human, UniProt P09919 31-206).
T9 construct: also called G-CSFWT
T9 sequence: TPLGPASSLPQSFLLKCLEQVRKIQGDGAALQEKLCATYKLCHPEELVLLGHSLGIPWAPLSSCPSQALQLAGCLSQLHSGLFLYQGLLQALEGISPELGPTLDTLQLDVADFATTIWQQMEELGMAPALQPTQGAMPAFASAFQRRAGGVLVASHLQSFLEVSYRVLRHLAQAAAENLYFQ
Kind of assay: SPR (Biacore T200, 25 C), kinetic fit, 1:1 Langmuir; range over independent experiments; lower end of the range over the WT:WT runs. On the technique in general: SPR reads the build-up and loss of mass on a sensor chip optically.
Description: The SPR binding assays were carried out on a Biacore T200 instrument (GE Healthcare, Mississauga, ON, Canada) with PBS-T (PBS+0.05% (v/v) Tween 20) running buffer at a temperature of 25° C. […] Designs were assessed in three different immobilization orientations.
Double-referenced sensorgrams from duplicate or triplicate repeat injections were analyzed using Biacore™ T200 Evaluation Software v3.0 and fit to the 1:1 Langmuir binding model.
Kinetic-derived affinity constants (KD) where obtained by fitting the association and dissociation phases of the curves. […] For the cases in which the kinetic parameters could not be fit an attempt was made to derive a steady state affinity constant.

B1: WT G-CSF with C-terminal Twin Strep tag (ligand)
chain: not shown
notes: also called G-CSFWT
On to B1, for which the binding result in assay [1], in assay [2], in assay [3], in assay [4], in assay [5] and in assay [6] was “no binding” each time. The binding result in assay [7] and in assay [8] was “no binding” throughout.

B2: WT G-CSFR(Ig-CRH), purified, tag cleaved (receptor)
chain: GSMGCGHISVSAPIVHLGDPITASCIIKQNCSHLDPEPQILWRLGAELQPGGRQQRLSDGTQESIITLPHLNHTQAFLSCSLNWGNSLQILDQVELRAGYPPAIPHNLSCLMNLTTSSLICQWEPGPETHLPTSFTLKSFKSRGNCQTQGDSILDCVPKDGQSHCSIPRKHLLLYQNMGIWVQAENALGTSMSPQLCLDPMDVVKLEPPMLRTMDPSPEAAPPQAGCLQLSWEPWQPGLHINQKCELRHKPQRGEASWALVGPLPLEALQYELCGLLPATAYTLQIRCIRWPLPGHWSDWSPSLELRTTE
notes: also called G-CSFRWT; wild type G-CSFR ECD
For B2, the Kd (usually the equilibrium constant for the complex coming apart) in assay [9] lay within 1.8 to 2.5 nM.
